# T1: 676 aa long full-length GP probe (EBOV glycoprotein) (Ebola virus (EBOV), UniProt Q05320 33-676)
# T1 sequence: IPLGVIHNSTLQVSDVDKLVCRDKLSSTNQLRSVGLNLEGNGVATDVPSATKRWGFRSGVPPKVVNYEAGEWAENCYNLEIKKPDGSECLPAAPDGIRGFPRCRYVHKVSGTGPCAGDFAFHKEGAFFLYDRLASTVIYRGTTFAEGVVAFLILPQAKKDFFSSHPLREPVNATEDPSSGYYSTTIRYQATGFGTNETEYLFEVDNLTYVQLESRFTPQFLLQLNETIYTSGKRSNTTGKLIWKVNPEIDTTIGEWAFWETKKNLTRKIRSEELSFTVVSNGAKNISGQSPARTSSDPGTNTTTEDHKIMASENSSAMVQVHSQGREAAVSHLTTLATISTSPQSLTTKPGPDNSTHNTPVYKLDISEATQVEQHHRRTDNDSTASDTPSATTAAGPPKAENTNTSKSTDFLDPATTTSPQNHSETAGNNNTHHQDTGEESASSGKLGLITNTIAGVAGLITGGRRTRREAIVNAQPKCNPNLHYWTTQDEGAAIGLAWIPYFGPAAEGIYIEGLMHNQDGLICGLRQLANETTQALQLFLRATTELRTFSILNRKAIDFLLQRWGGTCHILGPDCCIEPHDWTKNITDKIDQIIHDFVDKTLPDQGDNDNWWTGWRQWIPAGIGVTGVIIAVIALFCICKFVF
# B1: mAb114 (parental IgG) (antibody, V domains shown)
# VH: EVQLVESGGGLIQPGGSLRLSCAASGFALRMYDMHWVRQTIDKRLEWVSAVGPSGDTYYADSVKGRFAVSRENAKNSLSLQMNSLTAGDTAIYYCVRSDRGVAGLFDSWGQGILVTVSS
# VL: DIQMTQSPSSLSASVGDRITITCRASQAFDNYVAWYQQRPGKVPKLLISAASALHAGVPSRFSGSGSGTHFTLTISSLQPEDVATYYCQNYNSAPLTFGGGTKVEIKS
# B2: FabA09 (Fab of parental mAbA09) (Fab, V domains shown)
# VH: QVQLQESGPGLVKPSETLSLTCVVSGGILSSFYWNWIRQPPGKGLEWIGNIYYSGSPNYNASFQSRVAISVDTSKNQISLNLKSVTAADTAMYYCVRASRAYLWGSYRPTALDLWGQGSLVTVSS
# VL: SYELTQPPSVSVSPGQTATITCSGDKLGDKYTSWFQQRPGQSPLLVIYQDNKRPSGLPARFSGSNSGNTATLTISGTQAMDEADYLCQVWDSGAVFGGGTKLTVL
# B3: BiSp107 (mAb114×A09) CrossMab bispecific IgG (bispecific antibody)
# heavy 1: not shown
# light 1: DIQMTQSPSSLSASVGDRITITCRASQAFDNYVAWYQQRPGKVPKLLISAASALHAGVPSRFSGSGSGTHFTLTISSLQPEDVATYYCQNYNSAPLTFGGGTKVEIKSSASTKGPSVFPLAPSSKSTSGGTAALGCLVKDYFPEPVTVSWNSGALTSGVHTFPAVLQSSGLYSLSSVVTVPSSSLGTQTYICNVNHKPSNTKVDKKVEPKSC
# heavy 2: not shown
# light 2: SYELTQPPSVSVSPGQTATITCSGDKLGDKYTSWFQQRPGQSPLLVIYQDNKRPSGLPARFSGSNSGNTATLTISGTQAMDEADYLCQVWDSGAVFGGGTKLTVLGQPKAAPSVTLFPPSSEELQANKATLVCLISDFYPGAVTVAWKADSSPVKAGVETTTPSKQSNNKYAASSYLSLTPEQWKSHRSYSCQVTHEGSTVEKTVAPTECS
# Columns and labels:
# [1] = molecular target: T1, 676 aa long full-length GP probe (EBOV …); experiment: BLI saturation binding, full probe on sensor
# [2] = molecular target: T1, 676 aa long full-length GP probe (EBOV …); experiment: BLI kinetics on full-length GP with the mAb114 site blocked
# [3] = molecular target: T1, 676 aa long full-length GP probe (EBOV …)
binder,measurement,setting,value
B1,fold binding response at saturation against A09,[1],2 fold
B2,fold on-rate against BiSp107,[2],3.4 fold
B3,fold difference in binding kinetics against parental Fab,[3],≤ 3 fold

# — US20250333484A1 (US Dept. of Health and Human Services, published 2025)
